Numbered stars: 1 amine (or outer) side, 2 acyl side, 3 side chain; on linkers, the order of the positions; unused ones are H or OH. Square brackets hold non-standard residues; d marks the D form. Side chains are listed from the residue outwards. Ends that are not written are not given here. * marks the point of attachment. C20 diacid = O=C(O)CCCCCCCCCCCCCCCCCCC(=O)*; γGlu = O=C(O)[C@H](CCC(=O)[*:2])N[*:1]; AEEA = NCCOCCOCC(=O)O; Aib = CC(C)(N)C(=O)O

Drawing on US20200024322A1 (Eli Lilly, published 2020), this text covers Ki for 5 molecules.

The target of one experiment is T1, human GIP receptor (human, UniProt P48546 22-466).
T1 construct: whole, on cells; Used as crude membranes of stably transfected CHO cells; also called hGIPR
T1 sequence (looked up): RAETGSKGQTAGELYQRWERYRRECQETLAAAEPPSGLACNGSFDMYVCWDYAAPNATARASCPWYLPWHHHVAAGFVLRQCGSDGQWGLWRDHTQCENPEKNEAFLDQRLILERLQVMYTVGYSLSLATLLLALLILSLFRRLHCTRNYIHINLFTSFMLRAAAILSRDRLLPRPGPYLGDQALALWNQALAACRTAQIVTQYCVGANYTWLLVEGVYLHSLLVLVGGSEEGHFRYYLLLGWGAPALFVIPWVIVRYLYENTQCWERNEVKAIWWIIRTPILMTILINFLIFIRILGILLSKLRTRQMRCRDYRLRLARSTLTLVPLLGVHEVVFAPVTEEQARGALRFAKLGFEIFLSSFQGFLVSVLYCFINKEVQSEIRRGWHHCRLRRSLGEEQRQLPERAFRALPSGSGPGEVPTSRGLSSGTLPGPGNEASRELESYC
The experiment can be described thus: SPA, [125I]-GIP displacement, hGIPR membranes.

In another experiment the target is T2, human glucagon receptor (human, UniProt P47871 26-477).
T2 construct: whole, on cells; Used as crude membranes of stably transfected HEK293 cells; also called hGcgR; hGLcgR
The experiment can be described thus: SPA, [125I]-Gcg displacement, hGcgR membranes.

The target in a further experiment is T3, human GLP-1 receptor (human, UniProt P43220 24-463).
T3 construct: whole, on cells; Used as crude membranes of stably transfected HEK293 cells; also called hGLP1R; hGLP-1R
The experiment can be described thus: SPA, [125I]-GLP-1 displacement, hGLP-1R membranes.

T2 sequence (P47871 26-477): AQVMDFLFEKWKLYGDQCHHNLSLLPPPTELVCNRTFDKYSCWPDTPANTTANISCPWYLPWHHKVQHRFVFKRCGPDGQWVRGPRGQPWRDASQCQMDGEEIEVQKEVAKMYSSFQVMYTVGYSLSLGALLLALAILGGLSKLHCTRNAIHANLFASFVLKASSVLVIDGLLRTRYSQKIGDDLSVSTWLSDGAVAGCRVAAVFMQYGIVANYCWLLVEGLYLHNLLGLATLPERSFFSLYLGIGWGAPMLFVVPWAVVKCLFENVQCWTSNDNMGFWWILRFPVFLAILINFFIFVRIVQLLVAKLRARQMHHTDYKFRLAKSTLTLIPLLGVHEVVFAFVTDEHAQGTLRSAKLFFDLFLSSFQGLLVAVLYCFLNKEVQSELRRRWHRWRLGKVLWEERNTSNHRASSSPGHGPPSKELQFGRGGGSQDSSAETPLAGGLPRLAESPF

B1: Example 36 (peptide)
peptide: Y[Aib]EGTFTSDYSILLDKIAQ[Aib]AFIEYLK([AEEA-AEEA-γGlu-C20 diacid])EGGPSSGAPPPS-NH2
modifications: N-terminus assumed
SMILES: CC[C@H](C)[C@H](NC(=O)[C@H](CCCCN)NC(=O)[C@H](CC(=O)O)NC(=O)[C@H](CC(C)C)NC(=O)[C@H](CC(C)C)NC(=O)[C@@H](NC(=O)[C@H](CO)NC(=O)[C@H](Cc1ccc(O)cc1)NC(=O)[C@H](CC(=O)O)NC(=O)[C@H](CO)NC(=O)[C@@H](NC(=O)[C@H](Cc1ccccc1)NC(=O)[C@@H](NC(=O)CNC(=O)[C@H](CCC(=O)O)NC(=O)C(C)(C)NC(=O)[C@@H](N)Cc1ccc(O)cc1)[C@@H](C)O)[C@@H](C)O)[C@@H](C)CC)C(=O)N[C@@H](C)C(=O)N[C@@H](CCC(N)=O)C(=O)NC(C)(C)C(=O)N[C@@H](C)C(=O)N[C@@H](Cc1ccccc1)C(=O)N[C@H](C(=O)N[C@@H](CCC(=O)O)C(=O)N[C@@H](Cc1ccc(O)cc1)C(=O)N[C@@H](CC(C)C)C(=O)N[C@@H](CCCCNC(=O)COCCOCCNC(=O)COCCOCCNC(=O)CC[C@H](NC(=O)CCCCCCCCCCCCCCCCCCC(=O)O)C(=O)O)C(=O)N[C@@H](CCC(=O)O)C(=O)NCC(=O)NCC(=O)N1CCC[C@H]1C(=O)N[C@@H](CO)C(=O)N[C@@H](CO)C(=O)NCC(=O)N[C@@H](C)C(=O)N1CCC[C@H]1C(=O)N1CCC[C@H]1C(=O)N1CCC[C@H]1C(=O)N[C@@H](CO)C(N)=O)[C@@H](C)CC
Broadly, the Ki is the dissociation constant of the complex between target and ligand, obtained from inhibition or displacement. A lower Ki goes with higher affinity. On to B1, for which the Ki with human GIP receptor is 0.141 nM; in the experiment with human glucagon receptor, 413 nM; with human GLP-1 receptor it was 16.4 nM.

B2: Example 41 (peptide)
peptide: Y[Aib]EGTFTSDYSILLDKIAQ[Aib]AFIEYLIEGGPK([AEEA-AEEA-γGlu-C20 diacid])SGAPPPS-NH2
modifications: N-terminus assumed
SMILES: CC[C@H](C)[C@H](NC(=O)[C@H](CCCCN)NC(=O)[C@H](CC(=O)O)NC(=O)[C@H](CC(C)C)NC(=O)[C@H](CC(C)C)NC(=O)[C@@H](NC(=O)[C@H](CO)NC(=O)[C@H](Cc1ccc(O)cc1)NC(=O)[C@H](CC(=O)O)NC(=O)[C@H](CO)NC(=O)[C@@H](NC(=O)[C@H](Cc1ccccc1)NC(=O)[C@@H](NC(=O)CNC(=O)[C@H](CCC(=O)O)NC(=O)C(C)(C)NC(=O)[C@@H](N)Cc1ccc(O)cc1)[C@@H](C)O)[C@@H](C)O)[C@@H](C)CC)C(=O)N[C@@H](C)C(=O)N[C@@H](CCC(N)=O)C(=O)NC(C)(C)C(=O)N[C@@H](C)C(=O)N[C@@H](Cc1ccccc1)C(=O)N[C@H](C(=O)N[C@@H](CCC(=O)O)C(=O)N[C@@H](Cc1ccc(O)cc1)C(=O)N[C@@H](CC(C)C)C(=O)N[C@H](C(=O)N[C@@H](CCC(=O)O)C(=O)NCC(=O)NCC(=O)N1CCC[C@H]1C(=O)N[C@@H](CCCCNC(=O)COCCOCCNC(=O)COCCOCCNC(=O)CC[C@H](NC(=O)CCCCCCCCCCCCCCCCCCC(=O)O)C(=O)O)C(=O)N[C@@H](CO)C(=O)NCC(=O)N[C@@H](C)C(=O)N1CCC[C@H]1C(=O)N1CCC[C@H]1C(=O)N1CCC[C@H]1C(=O)N[C@@H](CO)C(N)=O)[C@@H](C)CC)[C@@H](C)CC
In the case of B2, the values for the inhibition constant (Ki) in the experiment with human GIP receptor, with human glucagon receptor and with human GLP-1 receptor were 0.0551 nM, 165 nM and 13.4 nM, respectively.

B3: Example 39 (peptide)
peptide: Y[Aib]EGTFTSDYSILLDKIAQ[Aib]AFIEYLIEGK([AEEA-AEEA-γGlu-C20 diacid])PSSGAPPPS-NH2
modifications: N-terminus assumed
SMILES: CC[C@H](C)[C@H](NC(=O)[C@H](CCCCN)NC(=O)[C@H](CC(=O)O)NC(=O)[C@H](CC(C)C)NC(=O)[C@H](CC(C)C)NC(=O)[C@@H](NC(=O)[C@H](CO)NC(=O)[C@H](Cc1ccc(O)cc1)NC(=O)[C@H](CC(=O)O)NC(=O)[C@H](CO)NC(=O)[C@@H](NC(=O)[C@H](Cc1ccccc1)NC(=O)[C@@H](NC(=O)CNC(=O)[C@H](CCC(=O)O)NC(=O)C(C)(C)NC(=O)[C@@H](N)Cc1ccc(O)cc1)[C@@H](C)O)[C@@H](C)O)[C@@H](C)CC)C(=O)N[C@@H](C)C(=O)N[C@@H](CCC(N)=O)C(=O)NC(C)(C)C(=O)N[C@@H](C)C(=O)N[C@@H](Cc1ccccc1)C(=O)N[C@H](C(=O)N[C@@H](CCC(=O)O)C(=O)N[C@@H](Cc1ccc(O)cc1)C(=O)N[C@@H](CC(C)C)C(=O)N[C@H](C(=O)N[C@@H](CCC(=O)O)C(=O)NCC(=O)N[C@@H](CCCCNC(=O)COCCOCCNC(=O)COCCOCCNC(=O)CC[C@H](NC(=O)CCCCCCCCCCCCCCCCCCC(=O)O)C(=O)O)C(=O)N1CCC[C@H]1C(=O)N[C@@H](CO)C(=O)N[C@@H](CO)C(=O)NCC(=O)N[C@@H](C)C(=O)N1CCC[C@H]1C(=O)N1CCC[C@H]1C(=O)N1CCC[C@H]1C(=O)N[C@@H](CO)C(N)=O)[C@@H](C)CC)[C@@H](C)CC
Turning to B3, the figures for the Ki with human GIP receptor, with human glucagon receptor and with human GLP-1 receptor were 0.0499 nM, 161 nM and 16.8 nM, respectively.

B4: Example 40 (peptide)
peptide: Y[Aib]EGTFTSDYSILLDKIAQ[Aib]AFIEYLIEGGK([AEEA-AEEA-γGlu-C20 diacid])SSGAPPPS-NH2
modifications: N-terminus assumed
SMILES: CC[C@H](C)[C@H](NC(=O)[C@H](CCCCN)NC(=O)[C@H](CC(=O)O)NC(=O)[C@H](CC(C)C)NC(=O)[C@H](CC(C)C)NC(=O)[C@@H](NC(=O)[C@H](CO)NC(=O)[C@H](Cc1ccc(O)cc1)NC(=O)[C@H](CC(=O)O)NC(=O)[C@H](CO)NC(=O)[C@@H](NC(=O)[C@H](Cc1ccccc1)NC(=O)[C@@H](NC(=O)CNC(=O)[C@H](CCC(=O)O)NC(=O)C(C)(C)NC(=O)[C@@H](N)Cc1ccc(O)cc1)[C@@H](C)O)[C@@H](C)O)[C@@H](C)CC)C(=O)N[C@@H](C)C(=O)N[C@@H](CCC(N)=O)C(=O)NC(C)(C)C(=O)N[C@@H](C)C(=O)N[C@@H](Cc1ccccc1)C(=O)N[C@H](C(=O)N[C@@H](CCC(=O)O)C(=O)N[C@@H](Cc1ccc(O)cc1)C(=O)N[C@@H](CC(C)C)C(=O)N[C@H](C(=O)N[C@@H](CCC(=O)O)C(=O)NCC(=O)NCC(=O)N[C@@H](CCCCNC(=O)COCCOCCNC(=O)COCCOCCNC(=O)CC[C@H](NC(=O)CCCCCCCCCCCCCCCCCCC(=O)O)C(=O)O)C(=O)N[C@@H](CO)C(=O)N[C@@H](CO)C(=O)NCC(=O)N[C@@H](C)C(=O)N1CCC[C@H]1C(=O)N1CCC[C@H]1C(=O)N1CCC[C@H]1C(=O)N[C@@H](CO)C(N)=O)[C@@H](C)CC)[C@@H](C)CC
As to B4, the Ki with human GIP receptor is 0.0345 nM; with human glucagon receptor, 150 nM; with human GLP-1 receptor, 7.56 nM.

B5: Example 37 (peptide)
peptide: Y[Aib]EGTFTSDYSILLDKIAQ[Aib]AFIEYLIK([AEEA-AEEA-γGlu-C20 diacid])GGPSSGAPPPS-NH2
modifications: N-terminus assumed
SMILES: CC[C@H](C)[C@H](NC(=O)[C@H](CCCCN)NC(=O)[C@H](CC(=O)O)NC(=O)[C@H](CC(C)C)NC(=O)[C@H](CC(C)C)NC(=O)[C@@H](NC(=O)[C@H](CO)NC(=O)[C@H](Cc1ccc(O)cc1)NC(=O)[C@H](CC(=O)O)NC(=O)[C@H](CO)NC(=O)[C@@H](NC(=O)[C@H](Cc1ccccc1)NC(=O)[C@@H](NC(=O)CNC(=O)[C@H](CCC(=O)O)NC(=O)C(C)(C)NC(=O)[C@@H](N)Cc1ccc(O)cc1)[C@@H](C)O)[C@@H](C)O)[C@@H](C)CC)C(=O)N[C@@H](C)C(=O)N[C@@H](CCC(N)=O)C(=O)NC(C)(C)C(=O)N[C@@H](C)C(=O)N[C@@H](Cc1ccccc1)C(=O)N[C@H](C(=O)N[C@@H](CCC(=O)O)C(=O)N[C@@H](Cc1ccc(O)cc1)C(=O)N[C@@H](CC(C)C)C(=O)N[C@H](C(=O)N[C@@H](CCCCNC(=O)COCCOCCNC(=O)COCCOCCNC(=O)CC[C@H](NC(=O)CCCCCCCCCCCCCCCCCCC(=O)O)C(=O)O)C(=O)NCC(=O)NCC(=O)N1CCC[C@H]1C(=O)N[C@@H](CO)C(=O)N[C@@H](CO)C(=O)NCC(=O)N[C@@H](C)C(=O)N1CCC[C@H]1C(=O)N1CCC[C@H]1C(=O)N1CCC[C@H]1C(=O)N[C@@H](CO)C(N)=O)[C@@H](C)CC)[C@@H](C)CC
For the molecule B5, the inhibitory constant (Ki) is 0.0523 nM with human GIP receptor, 255 nM in the experiment with human glucagon receptor and 3.84 nM with human GLP-1 receptor.
